Test results reported in patent publication US10980859B2, “In vivo individualized systemic immunotherapeutic method and device” (Hangzhou Converd Co., Ltd., priority 2013, dated 2021).

Assays:
[1] = tested on: Ly-6G+ DC precursors and CD11b+ DC in spleen; test: Flow cytometric analysis of GM-CSF induced expansion of DC and DC precursor in normal animals; assay type: in vivo; conditions: s.c., healthy C57BL/6 mice
Procedure: Spleen Tissue Dissociation (for FIG. 6-8)
Briefly, mice were killed, and spleens were removed into cold culture medium and processed immediately. Surrounding mouse tissue and fat were removed. The spleens were minced into 2-3 mm fragments, and then crushed in cold culture medium using a flat tail of syringe piston. The spleen fragments were mixed up and down several times using a 1.5 mL micropipette with a tip cut to a diameter adapted to tissue fragment size. After that, the fragments were filtered through a […] nylon mesh cell strainer (BD Biosciences, San Diego, Calif., USA). The released cells were centrifuged at 1200 RPM for 2 min and stored in cold culture medium with 30% (v/v) FCS at 4° C. All cells from all incubation periods were pooled and counted.
Flow Cytometric Analysis of GM-CSF Induced Expansion of DC and DC Precursorin Normal Animals (for FIG. 6, 7)
52 male 6-8 weeks old C57BL/6 mice were randomly numbered and then divided into 13 groups depended on the random number. 12 groups were subcutaneously (s.c.) administered murine GM-CSF (PeproTech, Cat#96-315-03-1000) 2 μg on their back of the ribs, single injection from day 1 to 12 respectively. The last group was control. After 13 days, all animals were sacrificed. […]

CD11b+ DC in spleen = test: Flow cytometric analysis of GM-CSF induced expansion of DC in B16 melanoma cell murine model; assay type: in vivo, C57BL/6 mice; conditions: s.c.
Text: Animal Model (for FIGS. 5-11)
The male immunocompetent C57BL/6 mice were purchased from Shanghai Experimental Animal Center (Shanghhai, China) and maintained in the animal facility at Tongji University (Shanghai, China) according to the animal research committee's guidelines of Tongji University. To establish the tumor-bearing animal model, the male immunocompetent C57BL/6 mice 6-8 weeks old, were subcutaneously (s.c.) inoculated on their back of the ribs with 2×10^6 B16 cells, and then monitored daily for tumor growth. After 6 days (when the tumors grew up to a mean tumor volume of around 70-100 mm^3), these tumor-bearing animals were randomly numbered and then divided into groups depended on the random number. Tumor volume was measured with a caliper each three days and calculated using the following formula: [L×W^2]/2 (L=length of tumor; W=width of tumor). […]
Briefly, mice were killed, and spleens were removed into cold culture medium and processed immediately. […] All cells from all incubation periods were pooled and counted. […]
63 male 6-8 weeks old C57BL/6 mice were subcutaneously (s.c.) inoculated on their back of the ribs with 2×10^6 B16 cells, and then monitored daily for tumor growth. […] After another 1.5, 2.5, 3.5 and 4.5 days, indicated groups were sacrificed and analyzed, respectively. […]

[2] = tested on: CD8+ TIL infiltration in B16 tumor; test: Immunofluorescence analysis of CD8+ TIL infiltration in tumor; assay type: in vivo, C57BL/6 mice; conditions: B16 tumor-bearing mice
Text: Systemic Immunotherapeutic Combination Therapy (for FIG. 10, 11, 12)
72 male 6-8 weeks old C57BL/6 mice were subcutaneously (s.c.) inoculated on their back of the ribs with 2×10^6 B16 cells, and then monitored daily for tumor growth. These tumor-bearing animals were randomly numbered and then divided into 9 groups depended on the random number. Indicated groups were subjected to OVs (H101, 4×10^9 VPs) therapy i.t. and/or GM-CSF s.c. and/or PD-L1 mab (eBioscience, Cat#16-5982-85) i.p. or PBS (pH 7.4) only s.c. at indicated time points. After day 13, all animals were sacrificed and analyzed. Grouping and experiment design are illustrated in FIG. 17.
Immunofluorescence Analysis of CD8^+ TIL Infiltration in Tumor Using Systemic Immunotherapeutic Combination Therapy (for FIG. 12)
The level of CD8^+ TIL infiltration in tumor was determined by immunofluorescence staining. […] After the treatment with antifade mounting medium, fluorescence signals were detected under fluorescence microscope (BX43, OLYMPUS). Fluorescence images were analyzed using Image-Pro Plus 6.0 software and the histogram was made by GraphPad Prism 5 software and p<0.05 was considered statistically significant.

B1: murine GM-CSF: murine granulocyte-macrophage colony-stimulating factor (PeproTech, Cat#96-315-03-1000) (protein, UniProt P01587 18-141, looked up)
Granulocyte-macrophage …: APTRSPITVTRPWKHVEAIKEALNLLDDMPVTLNEEVEVVSNEFSFKKLTCVQTRLKIFEQGLRGNFTKLKGALNMTASYYQTYCPPTPETDCETQVTTYADFIDSLKTFLTDIPFECKKPGQK
[1]
  CD11b+ DC in spleen: induces expansion of CD11b^+ DC at day 2-4
  Ly-6G+ DC precursors in spleen: induces expansion of Ly-6G^+ DC precursors at day 1
CD11b+ DC in spleen
  CD11b+ DC in spleen: induces up-regulation of CD11b^+ DC in spleen at Day 3.5
[2]
  CD8+ TIL infiltration in tumor: induces medium CD8^+ TIL infiltration
